Source: patent US20220220224A1 (Hoffmann-La Roche, published 2022)
Where two headings read alike, the source gives them in different places.

Assays:
[1] = target: T1, human FolR1 expressed on cells (HeLa, SKOV3, HT-29, transfected HEK cells) (human, UniProt P15328 25-234); assay: cell-based or functional assay
[2] = target: T1, human FolR1 expressed on cells (HeLa, …); assay: cell-based or functional assay; remark: listed apart in the source
[3] = target: T2, recombinant biotinylated monomeric Fc fusion of human Folate Receptor 1 (huFolR1 ECD-AcTev-Fcknob-Avi tag … (human, UniProt P0DOX5 223-449 = IgG part, biotin on the C-terminal Avi tag)); assay: SPR Biacore, avidity (bivalent)
T2 construct: also called huFolR1-Fc; human FolR1-Fc

[4] = target: T2, recombinant biotinylated monomeric Fc …; assay: SPR Biacore, affinity (monovalent)
[5] = target: T3, recombinant biotinylated monomeric Fc fusion of murine Folate Receptor 1 (mu FolR1 ECD-AcTev-Fcknob-Avitag … (murine, UniProt P0DOX5 223-449 = IgG part, biotin on the C-terminal Avi tag)); assay: SPR Biacore, single injection on immobilized antigen-Fc
T3 construct: also called muFolR1-Fc; murine FolR1
Method: (§1) All SPR experiments were performed on a Biacore T200 at 25° C. with HBS-EP as running buffer (0.01 M HEPES pH 7.4, 0.15 M NaCl, 3 mM EDTA, 0.005% Surfactant P20, Biacore, GE Healthcare). The molecules used for affinity and avidity determination are described in Table 45.
(§2) First the anti-FolR1 TCBs were analyzed by single injections (Table 46) to characterize their crossreactivity (to human, murine and cyno FolR1) and specificity (to human FolR1, human FolR2, human FolR3). Recombinant biotinylated monomeric Fc fusions of human, cynomolgus and murine Folate Receptor 1 (FolR1-Fc) or human Folate Receptor 2 and 3 (FolR2-Fc, FolR3-Fc) were directly coupled on a SA chip using the standard coupling instruction (Biacore, Freiburg/Germany). The immobilization level was about 300-400 RU. The TCBs were injected for 60 seconds at a concentration of 500 nM.

[6] = target: T4, recombinant biotinylated monomeric Fc fusion of human Folate Receptor 2 (hu FolR2 ECD-AcTev-Fcknob-Avi tag … (human, UniProt P0DOX5 223-449 = IgG part, biotin on the C-terminal Avi tag)); assay: as above
T4 construct: also called FolR2-Fc
Method: as §1, §2

[7] = target: T5, recombinant biotinylated monomeric Fc fusion of human Folate Receptor 3 (hu FolR3 ECD-AcTev-Fcknob-Avi tag … (human, UniProt P0DOX5 223-449 = IgG part, biotin on the C-terminal Avi tag)); assay: as above
T5 construct: also called FolR3-Fc
Method: as §1, §2

[8] = target: T2, recombinant biotinylated monomeric Fc …; assay: SPR Biacore, affinity (monovalent), antibody captured via anti-Fab
Method: as §1
(§3) For affinity measurement, direct coupling of around 12000 resonance units (RU) of the anti-human Fab specific antibody (Fab capture kit, GE Healthcare) was performed on a CM5 chip at pH 5.0 using the standard amine coupling kit (GE Healthcare). Anti-FolR1 T cell bispecifics were captured at 20 nM with a flow rate of 10 μl/min for 40 sec, the reference flow cell was left without capture. […] The dissociation phase was monitored for 300 s and triggered by switching from the sample solution to HBS-EP. The chip surface was regenerated after every cycle using a double injection of 60 sec 10 mM Glycine-HCl pH 2.1. Bulk refractive index differences were corrected for by subtracting the response obtained on the reference flow cell 1. The affinity constants for the interactions were derived from the rate constants by fitting to a 1:1 Langmuir binding using the Bia Evaluation software (GE Healthcare). For low affinity kinetics with association and dissociation phases too fast to be fitted by the 1:1 Langmuir binding model, the steady state analysis model was applied using the Bia Evaluation software (GE Healthcare). The steady state analysis gives the KD of the binding reaction at equilibrium.

[9] = target: T6, recombinant biotinylated monomeric Fc fusion of cynomolgus Folate Receptor 1 (cy FolR1 ECD-AcTev-Fcknob-Avi … (cynomolgus, UniProt P0DOX5 223-449 = IgG part, biotin on the C-terminal Avi tag)); assay: as above
T6 construct: also called cyFolR1-Fc; cyno FolR1
Method: as §1, §3

[10] = target: T2, recombinant biotinylated monomeric Fc …; assay: SPR Biacore, avidity (bivalent, apparent KD), antigen-Fc on SA chip
Method: as §1
(§4) Recombinant biotinylated monomeric Fc fusions of human, cynomolgus and murine Folate Receptor 1 (FolR1-Fc) were directly coupled on a SA chip using the standard coupling instruction (Biacore, GE Healthcare). The immobilization level was about 200-300 RU. […] The dissociation was monitored for 240 or 600 seconds. The chip surface was regenerated after every cycle using a double injection of 30 sec 10 mM Glycine-HCl pH 1.5. Bulk refractive index differences were corrected for by subtracting the response obtained on reference flow cell immobilized with recombinant biotinylated murine IL2R Fc fusion (unrelated Fc fused receptor). The binding curves resulting from the bivalent binding of the T cell bispecifics were approximated to a 1:1 Langmuir binding (even though it is a 1:2 binding) and fitted with that model to get an apparent KD representing the avidity of the bivalent binding. The apparent avidity constants for the interactions were derived from the rate constants of the fitting using the Bia Evaluation software (GE Healthcare).

[11] = target: T6, recombinant biotinylated monomeric Fc …; assay: as above
Method: as §1, §4

[12] = target: T4, recombinant biotinylated monomeric Fc …; assay: SPR Biacore, single injection on immobilized antigen-Fc; remark: listed apart in the source
Procedure, shortened: (§5)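 Biacore T200 at 25 °C in HBS-EP (HEPES pH 7.4). Biotinylated FolR-Fc fusions captured on SA chip at about 300-400 RU. IgGs injected once at 500 nM for 60 s to assess cross-reactivity and specificity.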

[13] = target: T5, recombinant biotinylated monomeric Fc …; assay: as above; remark: listed apart in the source
Procedure, shortened: as §5

[14] = target: T3, recombinant biotinylated monomeric Fc …; assay: SPR Biacore, single injection 500 nM on immobilized antigen-Fc
Method: Binding of FolR1 binders as IgG or in the T-cell bispecific format to different recombinant folate receptors (human FolR1, 2 and 3, murine FolR1 and cynomolgus FolR1; all as Fc fusions) was assessed by surface plasmon resonance (SPR). All SPR experiments were performed on a Biacore T200 at 25° C. with HBS-EP as running buffer (0.01 M HEPES pH 7.4, 0.15 M NaCl, 3 mM EDTA, 0.005% Surfactant P20, Biacore, Freiburg/Germany).
as §2, with “IgGs” for “TCBs”, “1)” for “46)”

[15] = target: T2, recombinant biotinylated monomeric Fc …; assay: SPR Biacore, avidity set-up, steady state
Method: (§6) The avidity of the interaction between the anti-FolR1 IgGs or T cell bispecifics and the recombinant folate receptors was determined as described below (Table 41).
(§7) Recombinant biotinylated monomeric Fc fusions of human, cynomolgus and murine Folate Receptor 1 (FolR1-Fc) were directly coupled on a SA chip using the standard coupling instruction (Biacore, Freiburg/Germany). The immobilization level was about 300. […] The dissociation was monitored for 240 or 600 seconds. Bulk refractive index differences were corrected for by subtracting the response obtained on reference flow cell immobilized with recombinant biotinylated murine IL2 receptor Fc fusion. The binding curves resulting from the bivalent binding of the IgG or T cell bispecifics were approximated to a 1:1 Langmuir binding (even though it is a 1:2 binding) and fitted with that model to get an apparent KD representing the avidity of the bivalent binding. The apparent avidity constants for the interactions were derived from the rate constants of the fitting using the Bia Evaluation software (GE Healthcare). For low affinity kinetics with association and dissociation phases too fast to be fitted by the 1:1 Langmuir binding model, the steady state analysis model was applied using the Bia Evaluation software (GE Healthcare). The steady state analysis gives the KD of the binding reaction at equilibrium.

[16] = target: T6, recombinant biotinylated monomeric Fc …; assay: SPR Biacore, avidity set-up, steady state
Method: as §6, §7

[17] = target: T1, human FolR1 expressed on cells (HeLa, …); assay: cell-based or functional assay; remark: listed apart in the source

T1 sequence (P15328 25-234): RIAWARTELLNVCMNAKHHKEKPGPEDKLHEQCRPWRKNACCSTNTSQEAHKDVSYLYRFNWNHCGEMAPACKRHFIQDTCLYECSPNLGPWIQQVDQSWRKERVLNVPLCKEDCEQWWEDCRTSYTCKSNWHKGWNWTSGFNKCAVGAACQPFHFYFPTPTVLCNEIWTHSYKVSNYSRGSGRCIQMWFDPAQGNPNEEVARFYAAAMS

B1: 16D5 G49S/S93A TCB (2+1 inverted, common light chain) (bispecific antibody, V domains shown)
VH 1: not shown
VL: QTVVTQEPSLTVSPGGTVTLTCGSSTGAVTTSNYANWVQQKPGQAPRGLIGGTNKRAPGTPARFSGSLLGGKAALTLSGVQPEDEAEYYCALWYANLWVFGGGTKLTVL
VH 2: not shown
- EC50 of T-cell killing of Hela, 24 h [1]: 0.0023 nM
- EC50 of T-cell killing of SKov-3, 24 h [1]: 0.43 nM
- EC50 of T-cell killing of HT-29, 48 h [2]: 0.0993 nM
- EC50 of T-cell killing of Hela, 48 h [2]: 0.0009 nM
- EC50 of T-cell killing of SKov-3, 48 h [2]: 0.0959 nM
- fold lower avidity than 16D5 WT (3 nM) [3]: 3 fold
- fold lower affinity than 16D5 WT (57 nM) [4]: 14.5 fold
- binding result [5]: no binding (tested: 500 nM)
- binding result [6]: no binding (tested: 500 nM)
- binding result [7]: no binding (tested: 500 nM)
- Kd [8]: 830 nM
- koff [8]: 0.00837 s⁻¹
- kon [8]: 10100 M⁻¹ s⁻¹
- Kd [9]: 420 nM
- koff [9]: 0.0086 s⁻¹
- kon [9]: 20500 M⁻¹ s⁻¹
- Kd [10]: 10 nM
- koff [10]: 0.00209 s⁻¹
- kon [10]: 149000 M⁻¹ s⁻¹
- Kd [11]: 20 nM
- koff [11]: 0.00784 s⁻¹
- kon [11]: 454000 M⁻¹ s⁻¹

B2: 20H7 IgG (antibody, V domains shown)
VH: QVQLVQSGAEVKKPGASVKVSCKASGYTFTSYYMHWVRQAPGQGLEWMGIINPSGGSTSYAQKFQGRVTMTRDTSTSTVYMELSSLRSEDTAVYYCARVGWYRWGYMDYWGQGTLVTVSS
VL: QAVVTQEPSLTVSPGGTVTLTCGSSTGAVTTSNYANWVQEKPGQAFRGLIGGTNKRAPGTPARFSGSLLGGKAALTLSGAQPEDEAEYYCALWYSNLWVFGGGTKLTVL
notes: human IgG1
- binding result [12]: no binding (tested: 500 nM)
- binding result [13]: no binding (tested: 500 nM)
- binding result [14]: binds

B3: 16D5 IgG variant W96Y/K53A (HC/LC) (antibody, V domains shown)
VH: not shown
VL: QTVVTQEPSLTVSPGGTVTLTCGSSTGAVTTSNYANWVQQKPGQAPRGLIGGTNARAPGTPARFSGSLLGGKAALTLSGVQPEDEAEYYCALWYSNLWVFGGGTKLTVL
notes: IgG
- Kd [15]: 580 nM
- Kd [16]: 660 nM

B4: 9D11 TCB S100aA (CD3 deamidation variant) (bispecific antibody, human IgG1, kappa, L234A L235A)
heavy 1: not shown
heavy 2: QVQLVQSGAEVKKPGASVKVSCKASGYTFTSYYMHWVRQAPGQGLEWMGIINPSGGPTSYAQKFQGRVTMTRDTSTSTVYMELSSLRSEDTAVYYCARGDFAWLDYWGQGTLVTVSSASTKGPSVFPLAPSSKSTSGGTAALGCLVKDYFPEPVTVSWNSGALTSGVHTFPAVLQSSGLYSLSSVVTVPSSSLGTQTYICNVNHKPSNTKVDKKVEPKSCDKTHTCPPCPAPEAAGGPSVFLFPPKPKDTLMISRTPEVTCVVVDVSHEDPEVKFNWYVDGVEVHNAKTKPREEQYNSTYRVVSVLTVLHQDWLNGKEYKCKVSNKALGAPIEKTISKAKGQPREPQVCTLPPSRDELTKNQVSLSCAVKGFYPSDIAVEWESNGQPENNYKTTPPVLDSDGSFFLVSKLTVDKSRWQQGNVFSCSVMHEALHNHYTQKSLSLSPGK
light 1: not shown
light 2: QAVVTQEPSLTVSPGGTVTLTCGSSTGAVTTSNYANWVQEKPGQAFRGLIGGTNKRAPGTPARFSGSLLGGKAALTLSGAQPEDEAEYYCALWYSNLWVFGGGTKLTVLSSASTKGPSVFPLAPSSKSTSGGTAALGCLVKDYFPEPVTVSWNSGALTSGVHTFPAVLQSSGLYSLSSVVTVPSSSLGTQTYICNVNHKPSNTKVDKKVEPKSC
- EC50 of T-cell killing of SKov-3, 24 h [17]: 0.00194 nM
